Results as given in patent US11137400.
Where a chain is given by its changes, count along the chain named.

Legend:
[1] = tested on: T1, Affinity-purified GST-tagged hXBP1s S288A mutant
T1 sequence: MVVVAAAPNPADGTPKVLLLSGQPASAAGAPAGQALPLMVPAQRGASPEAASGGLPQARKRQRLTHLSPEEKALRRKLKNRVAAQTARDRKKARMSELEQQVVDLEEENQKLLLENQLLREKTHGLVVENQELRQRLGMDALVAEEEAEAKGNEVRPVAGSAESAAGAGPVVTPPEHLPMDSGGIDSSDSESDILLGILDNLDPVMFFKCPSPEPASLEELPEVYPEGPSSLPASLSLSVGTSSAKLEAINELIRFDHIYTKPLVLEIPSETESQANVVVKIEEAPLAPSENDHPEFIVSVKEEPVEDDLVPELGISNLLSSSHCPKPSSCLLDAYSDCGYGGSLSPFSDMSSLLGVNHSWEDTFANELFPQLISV

[2] = tested on: T2, Affinity-purified GST-tagged wild type (WT) hXBP1s
T2 sequence: T1 sequence with A288S

Active recombinant human JNK2α2 (Millipore)
in vitro kinase assay, phosphorylation in the presence of ^32P (autoradiography) [1]: mutation of Ser288 to A abolished JNKs-mediated phosphorylation of hXBP1s
in vitro kinase assay, phosphorylation in the presence of ^32P (autoradiography) [2]: JNK1, JNK2 or JNK3 was sufficient to directly phosphorylate hXBP1s
